How the values were obtained:
[1] = biological target: T1, rhesus rotavirus (RRV) outer-layer protein VP4, recombinant, wild type (rhesus rotavirus (RRV; G3 serotype), UniProt P12473 1-776, amine-specific Atto dye in some preparations (dye combinations varied)); assay: co-sedimentation; recoating: VP4 added to purified DLPs in at least 5-fold excess at pH 5.2 (sodium acetate), 1.5 h at room temperature; then VP7 in at least 3-fold molar excess with calcium, 30 min; recoated particles separated from excess components by cesium chloride gradient centrifugation; SDS-PAGE and fluorescence imaging of the purified particles; details: both partners purified
T1 construct: VP4, outer capsid spike protein of rhesus rotavirus (RRV; G3 serotype); recombinant, not cleaved by trypsin when added to DLPs; Recoated particles were treated with trypsin (cleavage to VP8* and VP5*) only after recoating; also called WT VP4; VP4 wt; source: baculovirus-infected insect cells, purified (AmSO4 precipitation, Phenyl HP, HiTrap Q, S200)

[2] = biological target: T2, rhesus rotavirus (RRV) VP4 hydrophobic-loop mutant V391D, recombinant (rhesus rotavirus (RRV; G3 serotype), UniProt P12473 1-776, V391D); assay: as above; details: both partners purified
T2 construct: VP4 of rhesus rotavirus (RRV; G3 serotype) with V391D in a hydrophobic loop of VP5*; also called V391D VP4; VP4 fusion-loop mutant; source: baculovirus-infected insect cells, purified (AmSO4 precipitation, Phenyl HP, HiTrap Q, S200)

B1: rhesus rotavirus (RRV) outer-layer glycoprotein VP7, recombinant, wild type (natural protein)
chain: QNYGINLPITGSMDTAYANSTQEETFLTSTLCLYYPTEAATEINDNSWKDTLSQLFLTKGWPTGSVYFKEYTDIASFSVDPQLYCDYNVVLMKYDATLQLDMSELADLILNEWLCNPMDITLYYYQQTDEANKWISMGSSCTIKVCPLNTQTLGIGCLTTDTATFEEVATAEKLVITDVVDGVNHKLDVTTATCTIRNCKKLGPRENVAVIQVGGSDVLDITADPTTAPQTERMMRINWKKWWQVFYTVVDYVNQIIQAMSKRSRSLNSAAFYYRI
modifications: amine-specific Atto dye in some preparations (dye combinations varied)
notes: VP7, outer capsid glycoprotein of rhesus rotavirus (RRV; G3 serotype); Ca2+-stabilized trimer; also called WT VP7; VP7 wt
binding result [1]: binds
binding result [2]: binds
